Results reported in the supplement of paper PMC10567573.

B1: ZNF263 (parent)
chain: VPGTQVGQGGKLWDPSVQSCKEGL

Variants of: B1
Assay: protein stability index of a GFP-peptide fusion (GPS, HEK-293T) (PSI 1-6); higher = more stable
Conditions: c terminus: a fixed tail appended
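Further: lentivirally expressed fusions sorted by FACS into six bins by GFP to DsRed ratio, PSI derived from sequencing read proportions per bin multiplied by bin number.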

Protein stability index of substitutions, site by site:
G7: H 3.78; M 3.91; D 4.24; K 3.81; T 3.33; C 4.29; I 3.67; Q 3.69; E 4.41; P 3.78; W 4.06; S 4.41; V 3.87; R 3.68; Y 3.86
T4: G 4.26; E 3.4; Q 4.23; F 4.15; L 4.38; K 3.96; M 3.92; Y 4.08; V 4.57; N 4.44; D 4.85; H 4.1; R 3.92; P 4.29; C 4; S 4.08; W 3.55; I 3.42; A 4.55
G10: C 3.24; T 4.31; K 4.5; I 3.53; N 4.19; V 3.71; Y 3.55; R 4.96; E 4.01; D 4.54; Q 4.38; M 4.28; F 2.93; S 4.48; P 4.47; H 4.02; W 2.45; A 4.33; L 3.62
P2: R 4.24; H 3.75; S 3.55; V 4.01; K 3.89; N 4.18; D 4.12; I 3.19; T 3.86; Q 3.87; F 3.99; M 4.26; L 3.89; E 4.25; W 3.12; C 3.61; G 4.28; Y 2.83; A 4.17
W13: C 4.76; H 4.66; K 4.61; E 5.29; S 4.54; D 4.4; A 4.8; M 4.41; V 4.88; F 4.59; Y 4.57; I 4.66; T 4.79; P 4.72; N 5.12; R 4.71; G 5.5; L 4.8; Q 4.79
S16: M 3.92; D 4.93; A 4.88; C 4.11; T 4.58; V 4.02; E 4.73; I 3.15; F 3.12; Q 4.38; Y 3.68; P 4.45; K 4.11; R 3.12; N 3.89; G 4.21; W 3.17; H 4.27; L 3.53
L12: V 4.42; H 4.45; W 4.01; E 3.97; K 4.37; T 4.34; I 3.65; Q 4.72; C 3.94; A 3.4; R 4.36; S 4.3; F 4.26; G 3.97; M 4.07; P 5.07; D 4.89; N 4.42; Y 3.79
G9: P 3.25; W 3.33; Y 3.59; H 4.34; N 3.47; M 3.42; I 3.8; T 4.25; D 4.55; A 4.03; C 3.73; V 3.67; L 4.19; F 3.87; K 4.25; S 4.23; Q 4.22; E 4.61; R 3.67
V6: L 4.03; Q 4.73; D 4.3; T 4.7; P 4.26; K 4.69; R 4.55; H 3.51; S 4.67; Y 3.82; G 4.83; M 4.29; N 4.47; W 3.36; F 4.65; I 4.28; C 3.49; E 4.29; A 3.97
